Source: the supplement of paper PMC11136658

Tested on: peptide library, one residue held at a place counted from the Y acceptor
Experiment: relative phosphorylation of the sub-library (ratio to the mean residue at this position); higher = residue favoured
Summary of the method: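 Peptide library mixtures, biotinylated and centred on Tyr, each fixed one residue at one position from −5 to +5. Purified recombinant kinases were incubated with them for 90 min in 384-well plates alongside 50 μM ATP and γ-32P-ATP, and the captured, rinsed peptides on streptavidin membranes were measured by phosphorimaging and ImageQuant. Normalization divided each position's intensities by the sum of its 18 randomized residues (16 for the Ser/Thr-free library) and multiplied by that number, so that values give phosphorylation relative to the mean randomized residue.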

PDGFRA, construct: aa550-end, human, sequence (P16234 550-1089, looked up): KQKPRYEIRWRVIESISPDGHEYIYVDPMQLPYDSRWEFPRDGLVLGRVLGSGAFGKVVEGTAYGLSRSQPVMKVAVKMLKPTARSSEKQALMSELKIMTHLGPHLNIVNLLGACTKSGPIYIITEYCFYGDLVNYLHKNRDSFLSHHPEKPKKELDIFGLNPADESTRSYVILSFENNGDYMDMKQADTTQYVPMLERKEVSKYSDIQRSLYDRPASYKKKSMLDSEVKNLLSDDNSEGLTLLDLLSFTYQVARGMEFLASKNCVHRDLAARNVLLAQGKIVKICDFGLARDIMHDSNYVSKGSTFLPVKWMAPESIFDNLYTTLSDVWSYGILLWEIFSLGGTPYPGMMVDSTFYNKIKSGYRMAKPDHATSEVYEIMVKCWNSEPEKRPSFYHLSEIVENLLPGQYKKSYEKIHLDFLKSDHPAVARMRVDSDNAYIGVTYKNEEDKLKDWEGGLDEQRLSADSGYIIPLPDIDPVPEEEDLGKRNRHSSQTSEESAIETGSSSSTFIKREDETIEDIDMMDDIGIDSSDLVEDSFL
PDHK3, construct: Full length, human, sequence (Q15120 whole entry, looked up): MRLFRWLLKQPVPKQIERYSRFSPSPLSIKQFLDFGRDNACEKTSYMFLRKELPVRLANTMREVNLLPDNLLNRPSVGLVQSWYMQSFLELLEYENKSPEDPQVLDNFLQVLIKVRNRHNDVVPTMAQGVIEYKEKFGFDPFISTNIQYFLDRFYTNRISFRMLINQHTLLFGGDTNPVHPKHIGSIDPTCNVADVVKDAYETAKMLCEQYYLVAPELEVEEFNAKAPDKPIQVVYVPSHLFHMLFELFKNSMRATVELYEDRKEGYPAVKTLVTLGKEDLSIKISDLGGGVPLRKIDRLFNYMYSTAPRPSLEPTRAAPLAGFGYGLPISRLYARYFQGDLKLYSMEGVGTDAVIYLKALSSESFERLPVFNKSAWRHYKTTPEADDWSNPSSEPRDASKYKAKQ
PDHK4, construct: Full length, human, sequence (Q16654 whole entry, looked up): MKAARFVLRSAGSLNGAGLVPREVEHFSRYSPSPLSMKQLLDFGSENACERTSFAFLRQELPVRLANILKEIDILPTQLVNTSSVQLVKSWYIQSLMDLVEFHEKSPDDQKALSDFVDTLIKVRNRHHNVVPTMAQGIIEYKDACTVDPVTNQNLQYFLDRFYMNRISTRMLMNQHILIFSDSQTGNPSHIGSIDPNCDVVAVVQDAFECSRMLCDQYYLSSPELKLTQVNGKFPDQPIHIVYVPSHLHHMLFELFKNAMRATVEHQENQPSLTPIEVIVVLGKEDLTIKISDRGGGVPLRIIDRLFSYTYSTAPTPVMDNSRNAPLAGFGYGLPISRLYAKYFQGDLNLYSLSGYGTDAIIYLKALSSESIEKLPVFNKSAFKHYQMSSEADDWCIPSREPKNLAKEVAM

PDGFRA, construct: aa550-end, human (from UniProt P16234)
relative phosphorylation
Details	at +1	at +2	at +3	at +4	at +5	at -1	at -2	at -3	at -4	at -5
A fixed	0.719	0.633	0.549	0.784	0.982	0.729	1.02	0.85	1.04	0.882
D fixed	0.273	0.434	0.302	0.674	0.645	1.32	0.947	0.97	0.898	0.812
E fixed	0.492	0.583	0.198	0.613	0.565	0.962	0.814	1.14	0.849	0.737
F fixed	2.05	1.59	1.61	1.05	1.35	1.37	0.853	0.954	1.21	1.11
G fixed	0.34	0.427	0.755	0.98	0.943	0.594	1.09	1.07	1.08	1.03
H fixed	1.43	1.02	0.972	1.34	1.1	1.47	1.01	1.09	0.962	1.15
I fixed	1.66	1.03	2.09	0.922	0.999	1.36	0.94	0.823	0.916	1.1
K fixed	0.699	1.12	1.02	1.05	1.08	0.509	0.835	0.959	1.06	0.995
L fixed	1.31	1.4	1.53	0.808	1.12	1.18	1	0.905	1.06	1.11
M fixed	1.13	1.2	1.13	1.17	1.02	0.892	1	0.967	0.878	1.1
N fixed	0.671	0.856	0.748	0.987	0.967	1.49	1.06	1.13	0.832	1.07
P fixed	0.31	0.863	0.928	1.11	0.943	0.931	1.34	1.08	1.06	0.885
Q fixed	1.25	0.928	0.632	1.01	0.92	1.07	1.13	1.11	1.07	1.04
R fixed	0.768	1.56	1.19	1.49	1.17	0.55	1.03	1.09	1.05	1.19
S fixed	0.655	0.633	0.604	0.91	0.932	0.694	1.03	1.02	0.801	0.817
T fixed	0.848	0.606	0.793	0.97	0.888	0.945	0.917	0.977	0.745	0.856
V fixed	1.92	0.851	1.62	0.839	0.98	1.02	0.954	0.778	0.894	0.86
W fixed	1.46	2.27	1.33	1.31	1.39	0.91	1.03	1.07	1.6	1.26
pThr fixed	0.498	0.395	0.237	0.467	0.482	0.675	0.695	0.693	0.744	0.786
pTyr fixed	1.75	1.49	0.414	0.788	0.626	1.09	0.876	1.12	1.16	1.02

PDHK3, construct: Full length, human (from UniProt Q15120)
relative phosphorylation
Details	at +1	at +2	at +3	at +4	at +5	at -1	at -2	at -3	at -4	at -5
A fixed	0.864	0.935	0.907	1.15	0.809	0.955	1.04	0.965	1.15	1.1
D fixed	1.32	1.44	1.3	1.46	1.44	1.19	1.1	1.17	1.1	1.09
E fixed	1.1	1.02	1.32	1.46	1.23	0.907	1.02	0.781	0.943	0.994
F fixed	0.733	0.957	0.902	0.883	0.884	0.734	0.863	0.82	0.811	0.999
G fixed	1.14	0.947	1.11	1.06	1.09	1.03	1.07	1.24	1.33	1.12
H fixed	0.976	1.03	0.971	1.07	0.992	0.908	0.901	0.76	0.958	1.06
I fixed	0.74	0.721	0.875	0.87	0.766	0.781	0.793	0.67	0.826	0.874
K fixed	1.02	0.994	0.862	0.886	0.842	1.22	1.15	1.17	1	1.09
L fixed	0.876	0.878	0.869	1.03	0.886	0.906	1.12	1	0.9	0.95
M fixed	0.895	0.784	1.03	0.855	0.873	0.765	0.875	0.745	0.843	0.779
N fixed	1.18	1.01	0.955	0.877	0.944	1.04	0.912	0.933	0.986	0.897
P fixed	1.15	1.14	0.994	1.09	1.01	1.26	1.39	1.71	1.09	1.08
Q fixed	1.1	0.957	0.916	0.855	0.986	1.08	0.825	1.04	0.995	0.978
R fixed	1.09	0.889	0.906	0.714	0.926	1.09	1.02	1.01	1.18	0.997
V fixed	0.722	0.908	0.836	0.781	0.778	0.898	0.911	0.885	0.827	0.844
W fixed	1.1	1.39	1.26	0.97	1.54	1.24	1.03	1.09	1.07	1.15
pThr fixed	1.23	1.1	1.23	1.5	1.23	1.05	0.926	1.01	0.884	0.839
pTyr fixed	1.22	1.04	1.01	1.05	1.42	0.948	0.814	0.789	0.694	0.754

PDHK4, construct: Full length, human (from UniProt Q16654)
relative phosphorylation
Details	at +1	at +2	at +3	at +4	at +5	at -1	at -2	at -3	at -4	at -5
A fixed	0.747	0.56	0.742	0.698	0.589	0.81	0.808	0.801	0.946	0.872
D fixed	1.19	1.6	1.29	1.41	1.34	1.15	1.15	1.25	1.27	1.31
E fixed	1.04	1.2	1.49	1.26	1.33	1.02	1.11	0.838	1.11	1.17
F fixed	0.751	0.966	0.945	0.996	1.01	0.723	0.874	0.873	0.94	0.934
G fixed	1.01	0.938	1.02	0.95	1.05	1.17	1.24	1.26	1.19	1.1
H fixed	0.998	1.01	0.995	1.11	1.03	1.05	0.911	0.777	0.983	1.11
I fixed	0.568	0.546	0.652	0.669	0.722	0.654	0.654	0.568	0.739	0.773
K fixed	1.04	0.95	0.777	0.863	0.777	1.14	0.926	1.25	0.945	1.02
L fixed	0.798	0.809	0.798	1.1	1.03	0.823	1.1	0.99	0.827	0.827
M fixed	0.695	0.776	0.891	0.92	0.968	0.75	0.796	0.712	0.822	0.809
N fixed	1.49	1.3	1.16	1.15	1.06	1.34	1.21	1.14	1.01	1.07
P fixed	1.15	1.1	1.09	1.06	0.957	1.27	1.22	1.74	1.1	1.11
Q fixed	1.39	1.42	1.19	1.26	1.21	1.32	1.11	1.24	1.02	1.03
R fixed	1.17	0.976	0.885	0.812	0.798	1.11	1.09	0.868	1.06	0.994
V fixed	0.572	0.565	0.604	0.644	0.703	0.539	0.652	0.645	0.669	0.681
W fixed	1.39	1.28	1.47	1.1	1.44	1.13	1.15	1.05	1.37	1.18
pThr fixed	1.31	1.69	1.35	1.51	1.1	1.43	1.19	1.42	1.32	1.43
pTyr fixed	1.1	1.18	0.974	1.03	1.43	1.09	1.09	0.858	1.18	1.28

PINK1, construct: Full length, Tribolium castaneum (from UniProt D6WMX4)
relative phosphorylation
Details	at +1	at +2	at +3	at +4	at +5	at -1	at -2	at -3	at -4	at -5
A fixed	0.901	0.835	0.881	0.879	0.893	0.907	0.869	0.893	0.948	0.916
D fixed	0.823	0.834	0.831	0.914	0.84	0.931	0.892	0.906	1.05	1.09
E fixed	0.789	0.792	0.875	0.938	0.813	1.22	0.916	0.938	1.42	1.04
F fixed	1.43	1.12	1.08	1.07	1.05	1.17	1.11	0.986	1.1	0.984
G fixed	0.902	0.767	0.78	0.909	0.88	1.15	0.931	0.838	0.884	0.936
H fixed	1.23	1.15	1.07	1.1	1.07	0.97	1.05	1.08	1.01	1.09
I fixed	0.847	0.804	0.852	0.84	0.832	1	0.922	0.781	0.868	0.888
K fixed	0.937	1.59	1.31	1.32	1.31	1	1.13	1.2	1.03	1.18
L fixed	0.737	0.831	0.881	0.882	0.876	0.814	0.889	0.862	0.793	0.82
M fixed	0.762	1.01	0.959	0.869	0.891	0.819	0.824	0.849	0.798	0.85
N fixed	0.936	1	0.91	0.954	1.02	0.948	1.21	0.981	0.871	0.893
P fixed	0.778	0.786	0.909	0.885	0.876	0.911	0.843	0.851	0.828	0.911
Q fixed	0.862	0.989	0.973	0.99	1.02	0.998	0.996	1.09	0.934	0.887
R fixed	1.16	1.71	1.61	1.57	1.68	1.3	1.36	1.82	1.35	1.35
V fixed	0.784	0.805	0.857	0.797	0.816	0.853	0.911	0.819	0.817	0.874
W fixed	2.12	0.972	1.23	1.09	1.15	1	1.14	1.11	1.31	1.29
pThr fixed	0.939	0.843	0.735	0.99	0.826	1.29	0.841	1.06	1.04	1.06
pTyr fixed	1.3	0.83	0.872	1.26	0.978	1.25	0.995	1.2	1.16	1.11
